# According to patent US8911422B2, “Micro-needle device” (Hisamitsu Pharmaceutical Co., Inc., priority 2010, dated 2014):
# Tested on: rats
# Assay: in vivo injection with micro-needle device (Example 2), availability
# Set-up: species or system rat
# Conditions: coating range 200 μm
# Experimental: A micro-needle device similar to that of Example 1 was used to perform in vivo injection (rats) to determine availability. Here, 14C-OVA was coated on each of the micro-needles, and a coating range thereof was 200 μm in height including the top of the micro-needle concerned (that is, the range H=200 μm in FIG. 3 (c)). The 14C-OVA coated on the micro-needle device was about 100 μg in total, and pullulan, that is, a coating carrier, was about 100 μg in total.
# On injection, used was a spring impact-type applicator capable of giving an impact due to the elastic energy of 0.4 J/cm^2 to the back face of the micro-needle device. The elastic energy of the spring impact-type applicator is determined by the above-described formula (I). A spring constant for yielding the elastic energy of 0.4 J/cm^2 was 0.569 N/mm. In order to determine the availability, a Geiger-Muller (GM) counter tube was used to count radiant rays, and the measurement result was applied to a previously prepared calibration curve to determine an initially coated quantity and a quantity remaining on the micro-needle device peeled after puncture. Then, the remaining quantity was divided by the initially coated quantity to determine the availability.
molecule,measurement,setting,value
"14C-OVA (protein, UniProt P01012 2-386, looked up, 14C radiolabel, 14C-OVA coated on the micro-needles with pullulan as coating carrier) Ovalbumin: GSIGAASMEFCFDVFKELKVHHANENIFYCPIAIMSALAMVYLGAKDSTRTQINKVVRFDKLPGFGDSIEAQCGTSVNVHSSLRDILNQITKPNDVYSFSLASRLYAEERYPILPEYLQCVKELYRGGLEPINFQTAADQARELINSWVESQTNGIIRNVLQPSSVDSQTAMVLVNAIVFKGLWEKAFKDEDTQAMPFRVTEQESKPVQMMYQIGLFRVASMASEKMKILELPFASGTMSMLVLLPDEVSGLEQLESIINFEKLTEWTSSNVMEERKIKVYLPRMKMEEKYNLTSVLMAMGITDVFSSSANLSGISSAESLKISQAVHAAHAEINEAGREVVGSAEAGVDAASVSEEFRADHPFLFCIKHIATNAVLFFGRCVSP",availability,impact 0.4 J/cm^2 given once,38%
same,availability,"impact 0.4 J/cm^2 once, then pushed one minute at 1 kg/patch",42%
same,availability,"impact 0.4 J/cm^2 once, then pushed one minute at 3 kg/patch",58%
